According to publication doi:10.1101/2023.01.07.523125:

Target: human Slack channel (Slo2.2, KCNT1) (human) (UniProt Q5JUK3)
Assay: cryo-EM structure

human Slack channel (Slo2.2, KCNT1) (from UniProt Q5JUK3 1-1230) (natural protein)
stoichiometry N: 4
